Laboratory results from patent US20200199241A1 (Chugai, published 2020).

T1: human FcγRIIb (human, UniProt P31994 43-217, limits assumed)
T1 construct: also called FcgRIIb
T1 sequence: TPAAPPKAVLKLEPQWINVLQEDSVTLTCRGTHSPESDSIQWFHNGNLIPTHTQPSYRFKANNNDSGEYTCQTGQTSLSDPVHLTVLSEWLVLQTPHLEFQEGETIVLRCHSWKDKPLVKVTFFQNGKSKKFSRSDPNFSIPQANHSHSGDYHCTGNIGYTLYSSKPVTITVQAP

T2: human FcγRIIa(R) (human, UniProt P12318 36-217)
T2 construct: also called FcgRIIaR; FcγRIIa type R
T2 chain: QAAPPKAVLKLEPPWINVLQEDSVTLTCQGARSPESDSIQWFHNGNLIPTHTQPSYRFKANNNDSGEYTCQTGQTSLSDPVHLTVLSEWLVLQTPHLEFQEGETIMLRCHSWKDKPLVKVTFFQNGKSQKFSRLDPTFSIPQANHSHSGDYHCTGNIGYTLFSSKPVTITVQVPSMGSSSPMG

T3: human FcγRIIa(H) (human, UniProt P12318 36-217)
T3 construct: also called FcgRIIaH; FcγRIIa type H
T3 sequence: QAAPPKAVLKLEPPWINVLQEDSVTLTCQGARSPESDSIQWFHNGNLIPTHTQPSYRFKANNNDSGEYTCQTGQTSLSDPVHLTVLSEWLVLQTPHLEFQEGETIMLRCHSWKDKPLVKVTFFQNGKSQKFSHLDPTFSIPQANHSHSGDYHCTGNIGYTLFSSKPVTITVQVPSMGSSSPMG


Tests used:
Experiment in all cases: SPR (Biacore);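 also: antibody variants captured on sensor chip, Fcγ receptor flowed over at 25 °C, bound receptor normalized to amount of captured antibody, expressed relative to reference antibody set as 100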
[1] = target: T1, human FcγRIIb
[2] = target: T4, human FcγRIa (human, UniProt P12314 16-292, limits assumed)
T4 construct: also called FcgRIa; FcγRI (CD64)

[3] = target: T5, human FcγRIIIa(F) (human, UniProt P08637 17-208, limits assumed)
T5 construct: also called FcgRIIIaF; allotype F158

[4] = target: T2, human FcγRIIa(R)
[5] = target: T3, human FcγRIIa(H)

T5 sequence (P08637 other isoform, or with tags, fused parts or gaps limits assumed): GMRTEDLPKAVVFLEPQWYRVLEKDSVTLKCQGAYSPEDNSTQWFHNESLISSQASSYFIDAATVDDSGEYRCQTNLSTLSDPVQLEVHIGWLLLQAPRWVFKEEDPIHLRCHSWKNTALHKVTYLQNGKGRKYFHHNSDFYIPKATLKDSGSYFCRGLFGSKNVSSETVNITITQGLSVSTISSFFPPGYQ
T4 sequence (P12314 16-292 limits assumed): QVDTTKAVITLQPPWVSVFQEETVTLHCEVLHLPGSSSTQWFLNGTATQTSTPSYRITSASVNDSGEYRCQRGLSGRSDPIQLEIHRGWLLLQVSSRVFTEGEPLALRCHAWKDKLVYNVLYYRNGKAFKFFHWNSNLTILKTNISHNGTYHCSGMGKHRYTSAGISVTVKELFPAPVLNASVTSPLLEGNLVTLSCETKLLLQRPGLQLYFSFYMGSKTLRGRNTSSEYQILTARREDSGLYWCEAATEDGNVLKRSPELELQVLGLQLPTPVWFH

| Binder | relative binding activity [1] | relative binding activity [2] | relative binding activity [3] | relative binding activity [4] | relative binding activity [5] |
| --- | --- | --- | --- | --- | --- |
| GpH7-B3 variant G237N/GpL16-k0 (antibody, human IgG1, copies: 2 + 2) heavy: not shown light: DIVMTQSPLSLPVTPGEPASISCQASESLVHSNRNTYLHWYLQKPGQSPQLLIYKVSNRFSGVPDRFSGSGSGTDFTLKISRVEAEDVGVYYCSQNTHVPPTFGQGTKVEIE | 65 % of GpH7-B3/GpL16-k0 | 15 % of GpH7-B3/GpL16-k0 | 0 % of GpH7-B3/GpL16-k0 | 75 % of GpH7-B3/GpL16-k0 | 0 % of GpH7-B3/GpL16-k0 |
| GpH7-B3 variant G237M/GpL16-k0 (antibody, human IgG1, copies: 2 + 2) heavy: not shown light: DIVMTQSPLSLPVTPGEPASISCQASESLVHSNRNTYLHWYLQKPGQSPQLLIYKVSNRFSGVPDRFSGSGSGTDFTLKISRVEAEDVGVYYCSQNTHVPPTFGQGTKVEIE | 36 % of GpH7-B3/GpL16-k0 | 14 % of GpH7-B3/GpL16-k0 | 0 % of GpH7-B3/GpL16-k0 | 56 % of GpH7-B3/GpL16-k0 | 1 % of GpH7-B3/GpL16-k0 |
| GpH7-B3 variant G237T/GpL16-k0 (antibody, human IgG1, copies: 2 + 2) heavy: not shown light: DIVMTQSPLSLPVTPGEPASISCQASESLVHSNRNTYLHWYLQKPGQSPQLLIYKVSNRFSGVPDRFSGSGSGTDFTLKISRVEAEDVGVYYCSQNTHVPPTFGQGTKVEIE | 7 % of GpH7-B3/GpL16-k0 | 27 % of GpH7-B3/GpL16-k0 | 2 % of GpH7-B3/GpL16-k0 | 13 % of GpH7-B3/GpL16-k0 | 2 % of GpH7-B3/GpL16-k0 |
| GpH7-B3 variant G236R/GpL16-k0 (antibody, human IgG1, copies: 2 + 2) heavy: not shown light: DIVMTQSPLSLPVTPGEPASISCQASESLVHSNRNTYLHWYLQKPGQSPQLLIYKVSNRFSGVPDRFSGSGSGTDFTLKISRVEAEDVGVYYCSQNTHVPPTFGQGTKVEIE | 0 % of GpH7-B3/GpL16-k0 | 6 % of GpH7-B3/GpL16-k0 | -1 % of GpH7-B3/GpL16-k0 | 0 % of GpH7-B3/GpL16-k0 | 3 % of GpH7-B3/GpL16-k0 |
| GpH7-B3 variant G236P/GpL16-k0 (antibody, human IgG1, copies: 2 + 2) heavy: not shown light: DIVMTQSPLSLPVTPGEPASISCQASESLVHSNRNTYLHWYLQKPGQSPQLLIYKVSNRFSGVPDRFSGSGSGTDFTLKISRVEAEDVGVYYCSQNTHVPPTFGQGTKVEIE | 1 % of GpH7-B3/GpL16-k0 | 2 % of GpH7-B3/GpL16-k0 | 1 % of GpH7-B3/GpL16-k0 | 12 % of GpH7-B3/GpL16-k0 | 22 % of GpH7-B3/GpL16-k0 |

Continued, values first:

| relative binding activity [1] | relative binding activity [2] | relative binding activity [3] | relative binding activity [4] | relative binding activity [5] | Binder |
| --- | --- | --- | --- | --- | --- |
| 77 % of GpH7-B3/GpL16-k0 | 31 % of GpH7-B3/GpL16-k0 | 51 % of GpH7-B3/GpL16-k0 | 51 % of GpH7-B3/GpL16-k0 | 18 % of GpH7-B3/GpL16-k0 | GpH7-B3 variant L234D/GpL16-k0 (antibody, human IgG1, copies: 2 + 2) heavy: not shown light: DIVMTQSPLSLPVTPGEPASISCQASESLVHSNRNTYLHWYLQKPGQSPQLLIYKVSNRFSGVPDRFSGSGSGTDFTLKISRVEAEDVGVYYCSQNTHVPPTFGQGTKVEIE |
| 24 % of GpH7-B3/GpL16-k0 | 79 % of GpH7-B3/GpL16-k0 | 22 % of GpH7-B3/GpL16-k0 | 26 % of GpH7-B3/GpL16-k0 | 25 % of GpH7-B3/GpL16-k0 | GpH7-B3 variant L234A/GpL16-k0 (antibody, human IgG1, copies: 2 + 2) heavy: not shown light: DIVMTQSPLSLPVTPGEPASISCQASESLVHSNRNTYLHWYLQKPGQSPQLLIYKVSNRFSGVPDRFSGSGSGTDFTLKISRVEAEDVGVYYCSQNTHVPPTFGQGTKVEIE |
| 16 % of GpH7-B3/GpL16-k0 | 76 % of GpH7-B3/GpL16-k0 | 39 % of GpH7-B3/GpL16-k0 | 22 % of GpH7-B3/GpL16-k0 | 86 % of GpH7-B3/GpL16-k0 | GpH7-B3 variant G236Y/GpL16-k0 (antibody, human IgG1, copies: 2 + 2) heavy: not shown light: DIVMTQSPLSLPVTPGEPASISCQASESLVHSNRNTYLHWYLQKPGQSPQLLIYKVSNRFSGVPDRFSGSGSGTDFTLKISRVEAEDVGVYYCSQNTHVPPTFGQGTKVEIE |
| 26 % of GpH7-B3/GpL16-k0 | 50 % of GpH7-B3/GpL16-k0 | 1 % of GpH7-B3/GpL16-k0 | 45 % of GpH7-B3/GpL16-k0 | 3 % of GpH7-B3/GpL16-k0 | GpH7-B3 variant G237S/GpL16-k0 (antibody, human IgG1, copies: 2 + 2) heavy: not shown light: DIVMTQSPLSLPVTPGEPASISCQASESLVHSNRNTYLHWYLQKPGQSPQLLIYKVSNRFSGVPDRFSGSGSGTDFTLKISRVEAEDVGVYYCSQNTHVPPTFGQGTKVEIE |
| 5 % of GpH7-B3/GpL16-k0 | 14 % of GpH7-B3/GpL16-k0 | 0 % of GpH7-B3/GpL16-k0 | 15 % of GpH7-B3/GpL16-k0 | 0 % of GpH7-B3/GpL16-k0 | GpH7-B3 variant G237Q/GpL16-k0 (antibody, human IgG1, copies: 2 + 2) heavy: not shown light: DIVMTQSPLSLPVTPGEPASISCQASESLVHSNRNTYLHWYLQKPGQSPQLLIYKVSNRFSGVPDRFSGSGSGTDFTLKISRVEAEDVGVYYCSQNTHVPPTFGQGTKVEIE |
| 95 % of GpH7-B3/GpL16-k0 | 26 % of GpH7-B3/GpL16-k0 | 0 % of GpH7-B3/GpL16-k0 | 74 % of GpH7-B3/GpL16-k0 | 0 % of GpH7-B3/GpL16-k0 | GpH7-B3 variant G237D/GpL16-k0 (antibody, human IgG1, copies: 2 + 2) heavy: not shown light: DIVMTQSPLSLPVTPGEPASISCQASESLVHSNRNTYLHWYLQKPGQSPQLLIYKVSNRFSGVPDRFSGSGSGTDFTLKISRVEAEDVGVYYCSQNTHVPPTFGQGTKVEIE |
